Holding throughout (assay): fluorescence polarisation; 100 nM FITC-labeled phosphopeptide with increasing hsNbs1(384); room temperature, 15 min incubation; 25 mM HEPES pH 7.4, 150 mM NaCl, 1 mM EDTA, 2 mM DTT, 0.05% Tween20, 0.1% BSA; one-site model
What all share (details): both partners purified

The target in one test is T1, hsNbs1(384) R43A (human, UniProt O60934 1-384, R43A).
T1 construct: source: E. coli BL21(DE3) pLacI, purified as the wild type
T1 sequence (looked up): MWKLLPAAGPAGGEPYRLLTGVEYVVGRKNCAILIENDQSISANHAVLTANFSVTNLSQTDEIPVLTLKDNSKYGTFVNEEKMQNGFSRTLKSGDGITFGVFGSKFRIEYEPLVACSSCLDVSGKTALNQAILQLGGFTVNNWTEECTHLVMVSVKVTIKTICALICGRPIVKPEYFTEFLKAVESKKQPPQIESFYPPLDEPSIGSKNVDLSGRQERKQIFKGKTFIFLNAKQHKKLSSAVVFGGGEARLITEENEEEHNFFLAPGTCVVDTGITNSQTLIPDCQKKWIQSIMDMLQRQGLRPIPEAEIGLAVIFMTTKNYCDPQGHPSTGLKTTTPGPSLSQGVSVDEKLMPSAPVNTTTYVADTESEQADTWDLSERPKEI

Test [1] deals with T2, hsNbs1(384), the N-terminal 384 residues of homo sapiens Nbs1 containing the FHA-BRCT1-BRCT2 domains (human, UniProt O60934 1-384).
T2 construct: gene optimised for E. coli, cloned into pET30a (NdeI/HindIII); also called wt; source: E. coli BL21(DE3) pLacI, purified (Ni-NTA, HiTrap Q, Superdex 75)
T2 sequence (looked up): T1 sequence (looked up) with A43R

The next test deals with T3, hsNbs1(384) K73A (human, UniProt O60934 1-384, K73A).
T3 construct: source: E. coli BL21(DE3) pLacI, purified as the wild type
T3 sequence (looked up): T1 sequence (looked up) with A43R, K73A

Changes are numbered by the printed parent chain. Square brackets hold non-standard residues; d marks the D form. Primed or numbered codes have the meaning given here. Ends that are not written are not given here. FITC′ = fluorescein isothiocyanate label; pT = C[C@@H](OP(=O)(O)O)[C@H](N)C(=O)O

Turning to {FITC′}-GGRYIPPN[pT]PENFWEVGFPEEQ [hsCtIP phosphopeptide R841YIPPNpTPENFWEVGFPEEQ860 with N-terminal FITC-Gly-Gly], the Kd (usually the equilibrium constant for the complex coming apart) with hsNbs1(384) R43A is 29.2 µM; in test [1] it was 20 µM; with hsNbs1(384) K73A it was 32.9 µM.
